# Data: patent US20220064286A1
# Tests used:
# murine TIGIT (murine) = murine TIGIT (murine) (UniProt P86176); test: SPR, monovalent affinity
# [1] = biological target: human TIGIT protein (human) (UniProt Q495A1); test: SPR, monovalent affinity
# [2] = biological target: cynomolgus TIGIT-AviFlag-biotin (cynomolgus monkey); test: Block ELISA Cyno PVR-Fc:Bio-TIGIT-AviFlag (blocked ligand cyno PVR-Fc)
# [3] = biological target: human TIGIT-AviFlag-biotin (human) (UniProt Q495A1); test: Block ELISA Human PVR-Fc:Bio-TIGIT-AviFlag (blocked ligand human PVR-Fc)
# mouse TIGIT-His (mouse) = mouse TIGIT-His (mouse) (UniProt P86176); test: Block ELISA Mouse PVR-Fc:TIGIT-His (blocked ligand mouse PVR-Fc)
# [4] = biological target: human TIGIT protein (human) (UniProt Q495A1); test: SPR, bivalent affinity
# [5] = biological target: cynomolgus monkey (cyno) TIGIT protein (cynomolgus monkey); test: SPR, bivalent affinity
# [6] = biological target: human TIGIT protein (human) (UniProt Q495A1); test: SPR (BIACORE) KD normalized to WT, N=2
# [7] = biological target: human TIGIT protein (human) (UniProt Q495A1); test: SPR (BIACORE), N=2
# Sequence of 10A7 (antibody) (VH): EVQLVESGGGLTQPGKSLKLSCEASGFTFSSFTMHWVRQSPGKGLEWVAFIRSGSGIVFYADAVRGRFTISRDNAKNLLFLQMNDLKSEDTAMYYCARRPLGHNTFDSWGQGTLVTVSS
# Sequence of 10A7 (antibody) (VL): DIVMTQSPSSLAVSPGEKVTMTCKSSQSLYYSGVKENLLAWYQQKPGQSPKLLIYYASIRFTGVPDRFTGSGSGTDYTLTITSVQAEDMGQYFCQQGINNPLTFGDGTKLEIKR
# Sequence of 10A7 Fab (VH): as the sequence (VH) above
# Sequence of 10A7 Fab (VL): as the sequence (VL) above
# Sequence of human TIGIT-AviFlag-biotin (human) (Q495A1 22-141): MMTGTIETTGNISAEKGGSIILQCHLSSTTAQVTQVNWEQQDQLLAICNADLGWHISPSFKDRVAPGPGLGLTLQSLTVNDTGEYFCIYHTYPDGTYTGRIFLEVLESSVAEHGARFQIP
# Sequence of human TIGIT protein (human) (Q495A1 22-141 limits assumed): as the sequence (Q495A1 22-141) above
# Sequence of cynomolgus TIGIT-AviFlag-biotin (cynomolgus monkey) (chain, as listed by the source): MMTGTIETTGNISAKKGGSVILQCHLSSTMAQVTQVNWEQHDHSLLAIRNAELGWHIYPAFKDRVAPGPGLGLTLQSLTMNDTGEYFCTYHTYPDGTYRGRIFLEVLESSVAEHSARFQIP
# Sequence of mouse TIGIT-His (mouse) (P86176 29-148 limits assumed): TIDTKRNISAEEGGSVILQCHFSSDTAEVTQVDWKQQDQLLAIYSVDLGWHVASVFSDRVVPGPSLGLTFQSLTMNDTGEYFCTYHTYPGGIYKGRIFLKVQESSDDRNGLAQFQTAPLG
# Sequence of cynomolgus monkey (cyno) TIGIT protein (cynomolgus monkey) (chain, as listed by the source): as the sequence (chain, as listed by the source) above
# Sequence of murine TIGIT (murine) (P86176 29-148 limits assumed): as the sequence (P86176 29-148 limits assumed) above
Kd (murine TIGIT (murine)) [nM],Kd [1] [nM],IC50 [2] [nM],IC50 [3] [nM],IC50 (mouse TIGIT-His (mouse)) [nM],Kd [4] [nM],Kd [5] [nM],Binding affinity drop vs. WT [6] [fold],Kd [7] [nM],Substance
0.24,24,55.7,12.9,12.6,0.54,8.22,1,44.7,10A7 (antibody)
–,–,> 133,21.2,20.9,–,–,–,–,10A7 Fab
–,–,> 133,> 133,> 133,–,–,–,–,xCSF1 Fab control
